Assay results published in paper PMC1634882.
Blank lines part the entries; values can stand above or below the substance they belong to.

What was measured:
[1] = biological target: PorA in cell envelopes of N. meningitidis strain HB-1 (N. meningitidis (endogenous in HB-1)) (UniProt E6MZM0); test: semi-native SDS-PAGE; cell envelopes of N. meningitidis HB-1 or of E. coli expressing PorA or PorA-Q, samples not boiled, blot probed with anti-PorA antibody MN5C11G
[2] = biological target: PorA-Q mutant protein (penultimate Lys of PorA substituted by Gln) expressed in E. coli (N. meningitidis) (UniProt E6MZM0); test: as above
[3] = biological target: Omp85 from Escherichia coli, refolded in vitro from inclusion bodies (E. coli) (UniProt P0A940)
[4] = biological target: Omp85 from Escherichia coli, refolded in vitro from inclusion bodies (E. coli) (UniProt P0A940); remark: listed apart in the source

Substance: PorA in cell envelopes of N. meningitidis strain HB-1 (from UniProt E6MZM0 20-331) (natural protein)
stoichiometry N [1]: 3

Substance: PorA-Q mutant protein (penultimate Lys of PorA substituted by Gln) expressed in E. coli (from UniProt E6MZM0 20-331) (natural protein)
stoichiometry N [2]: 3

Substance: denatured E. coli PhoE porin (from UniProt P02932 22-351) (natural protein)
increase in conductivity per 0.12-nS Omp85 channel in planar lipid bilayers (voltage ramps); dose-dependent opening at pM concentrations of denatured PhoE, value at 80 pM [3]: 0.067 nS
percent increase in conductivity per 0.12-nS Omp85 channel upon addition of 80 pM denatured PhoE [3]: 56 to 58%

Now from value to substance:

increase in conductivity per 0.12-nS Omp85 channel in planar lipid bilayers (voltage ramps) upon addition of 80 pM denatured LamB [3]: 0.069 nS
percent increase in conductivity per 0.12-nS Omp85 channel upon addition of 80 pM denatured LamB [3]: 56 to 58%
Substance: maltoporin LamB from E. coli, denatured (from UniProt P02943 26-446) (natural protein)

increase in conductivity per 0.12-nS Omp85 channel in planar lipid bilayers; dose-dependent opening at μM concentrations of the peptide, value at 96 μM [4]: 0.6 nS
Substance: synthetic peptide corresponding to the C-terminal 12 amino acid residues of PhoE (CterPhoE)
